Measurements from article PMC2173940.

Assays:
soluble FcγRIIb = soluble FcγRIIb (UniProt P31994); test: SPR; BIAcore 2000; FcγRIIa, FcγRIIb or FcγRIIIa amine-coupled to CM5 (8000-10000 RU); IgG1-4, with or without EndoS treatment, injected, typically 10-1.25 µg/ml, 35 µl/min, 25°C; 10 mM HEPES pH 7.5, 150 mM NaCl, 0.005% P20, 3.4 mM EDTA; 1:1 Langmuir fit; empty flow cell as reference
soluble FcγRIIa = soluble FcγRIIa (UniProt P12318); test: as above
human IgG4 (human) = test: SPR; BIAcore 2000; IgG1-4 or deglycosylated IgG1-4 amine-coupled to CM5 (8000-10000 RU); EndoS or EndoS(E235Q) injected, typically 10-1.25 µg/ml, 35 µl/min, 25°C; 10 mM HEPES pH 7.5, 150 mM NaCl, 0.005% P20, 3.4 mM EDTA; 1:1 Langmuir fit; deglycosylated IgG flow cells as reference
human IgG2 (human) = test: as above
human IgG3 (human) = test: as above
human IgG1 (human) = test: as above

UniProt P31994, sequence (P31994 43-217): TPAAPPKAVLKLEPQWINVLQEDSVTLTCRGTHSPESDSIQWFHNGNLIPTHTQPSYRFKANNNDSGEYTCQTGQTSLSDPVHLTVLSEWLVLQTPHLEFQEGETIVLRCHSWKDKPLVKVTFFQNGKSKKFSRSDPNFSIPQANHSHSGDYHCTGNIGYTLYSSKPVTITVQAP
UniProt P12318, sequence (P12318 34-217): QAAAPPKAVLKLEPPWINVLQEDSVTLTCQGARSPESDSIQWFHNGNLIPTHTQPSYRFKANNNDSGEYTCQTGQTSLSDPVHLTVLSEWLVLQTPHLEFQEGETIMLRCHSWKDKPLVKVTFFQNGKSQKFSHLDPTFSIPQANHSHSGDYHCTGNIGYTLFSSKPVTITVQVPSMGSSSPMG

human IgG4 (antibody)
Kd (soluble FcγRIIb): 200 nM
koff (soluble FcγRIIb): 0.0069 s⁻¹
kon (soluble FcγRIIb): 34000 M⁻¹ s⁻¹

human IgG1 (antibody)
Kd (soluble FcγRIIa): 97 nM

B1: EndoS(E235Q), inactive form of EndoS (enzyme)
chain: EEKTVQVQKGLPSIDSLHYLSENSKKEFKEELSKAGQESQKVKEILAKAQQADKQAQELAKMKIPEKIPMKPLHGSLYGGYFRTWHDKTSDPTEKDKVNSMGELPKEVDLAFIFHDWTKDYSLFWKELATKHVPKLNKQGTRVIRTIPWRFLAGGDNSGIAEDTSKYPNTPEGNKALAKAIVDEYVYKYNLDGLDVDVQHDSIPKVDKKEDTAGVERSIQVFEEIGKLIGPKGVDKSRLFIMDSTYMADKNPLIERGAPYINLLLVQVYGSQGEKGGWEPVSNRPEKTMEERWQGYSKYIRPEQYMIGFSFYEENAQEGNLWYDINSRKDEDKANGINTDITGTRAERYARWQPKTGGVKGGIFSYAIDRDGVAHQPKKYAKQKEFKDATDNIFHSDYSVSKALKTVMLKDKSYDLIDEKDFPDKALREAVMAQVGTRKGDLERFNGTLRLDNPAIQSLEGLNKFKKLAQLDLIGLSRITKLDRSVLPANMKPGKDTLETVLETYKKDNKEEPATIPPVSLKVSGLTGLKELDLSGFDRETLAGLDAATLTSLEKVDISGNKLDLAPGTENRQIFDTMLSTISNHVGSNEQTVKFDKQKPTGHYPDTYGKTSLRLPVANEKVDLQSQLLFGTVTNQGTLINSEADYKAYQNHKIAGRSFVDSNYHYNNFKVSYENYTVKVTDSTLGTTTDKTLATDKEETYKVDFFSPADKTKAVHTAKVIVGDEKTMMVNLAEGATVIGGSADPVNARKVFDGQLGSETDNISLGWDSKQSIIFKLKEDGLIKHWRFFNDSARNPETTNKPIQEASLQIFNIKDYNLDNLLENPNKFDDEKYWITVDTYSAQGERATAFSNTLNNITSKYWRVVFDTKGDRYSSPVVPELQILGYPLPNADTIMKTVTTAKELSQQKDKFSQKMLDELKIKEMALETSLNSKIFDVTAINANAGVLKDCIEKRQLLKK
Kd (human IgG4 (human)): 140 nM
koff (human IgG4 (human)): 0.002 s⁻¹
kon (human IgG4 (human)): 15000 M⁻¹ s⁻¹
Kd (human IgG2 (human)): 210 nM
koff (human IgG2 (human)): 0.0025 s⁻¹
kon (human IgG2 (human)): 12000 M⁻¹ s⁻¹
Kd (human IgG3 (human)): 83 nM
koff (human IgG3 (human)): 0.0089 s⁻¹
kon (human IgG3 (human)): 107000 M⁻¹ s⁻¹
Kd (human IgG1 (human)): 420 nM
koff (human IgG1 (human)): 0.0176 s⁻¹
kon (human IgG1 (human)): 42000 M⁻¹ s⁻¹
